Data on 1 substance can be found in article PMC10498669.

The target in this test is AAV8 VP3 of the VP3-only capsid (VLP-0) (adeno-associated virus serotype 8). In words: native MS; high-resolution ensemble native MS of purified capsids; 75 mM ammonium acetate pH 7.5; Orbitrap Q Exactive UHMR, xenon collision gas, positive ion mode; spectra compared with simulations of stochastic assembly.

Usually stoichiometry N stands for a count of units in the complex or per binding partner. “AAV8 VP3 of the VP3-only capsid (VLP-0) (natural protein)” gave a stoichiometry N of 60.
